Results taken from publication PMC3438196.

Assays:
Assay in all cases: two-hybrid; MAPPIT (mammalian two-hybrid) in intact HEK293T cells: bait on the EpoR/leptin receptor chimera, prey on gp130 fragments, pXP2d2-rPAP1-luciferase reporter; fold induction of luciferase, Epo-stimulated (10 ng/ml hEpo) over unstimulated; 6-well or 96-well calcium phosphate transfection
[1] = molecular target: Apobec3G E110K MAPPIT bait (human) (UniProt Q9HC16)
[2] = molecular target: Apobec3G Y19A MAPPIT bait (human) (UniProt Q9HC16)
[3] = molecular target: Apobec3G N31S MAPPIT bait (human) (UniProt Q9HC16)
[4] = molecular target: Apobec3G D128K MAPPIT bait (human) (UniProt Q9HC16)
[5] = molecular target: Apobec3G R55A MAPPIT bait (human) (UniProt Q9HC16)
[6] = molecular target: Apobec3G L184A MAPPIT bait (human) (UniProt Q9HC16)
[7] = molecular target: Apobec3G S137A MAPPIT bait (human) (UniProt Q9HC16)
[8] = molecular target: Apobec3G D128H MAPPIT bait (human) (UniProt Q9HC16)
[9] = molecular target: Apobec3G V9A MAPPIT bait (human) (UniProt Q9HC16)
[10] = molecular target: Apobec3G TK98-99AS MAPPIT bait (human) (UniProt Q9HC16)
[11] = molecular target: Apobec3G RD102-103EK MAPPIT bait (human) (UniProt Q9HC16)
[12] = molecular target: Apobec3G K63E MAPPIT bait (human) (UniProt Q9HC16)
[13] = molecular target: Apobec3G M12A MAPPIT bait (human) (UniProt Q9HC16)
[14] = molecular target: Apobec3G TK98-99AD MAPPIT bait (human) (UniProt Q9HC16)
[15] = molecular target: Apobec3G T32E MAPPIT bait (human) (UniProt Q9HC16)
[16] = molecular target: Apobec3G LS27-28AA MAPPIT bait (human) (UniProt Q9HC16)
Apobec3G LS27-28AA MAPPIT bait (human), sequence (Q9HC16 whole entry L27A/S28A): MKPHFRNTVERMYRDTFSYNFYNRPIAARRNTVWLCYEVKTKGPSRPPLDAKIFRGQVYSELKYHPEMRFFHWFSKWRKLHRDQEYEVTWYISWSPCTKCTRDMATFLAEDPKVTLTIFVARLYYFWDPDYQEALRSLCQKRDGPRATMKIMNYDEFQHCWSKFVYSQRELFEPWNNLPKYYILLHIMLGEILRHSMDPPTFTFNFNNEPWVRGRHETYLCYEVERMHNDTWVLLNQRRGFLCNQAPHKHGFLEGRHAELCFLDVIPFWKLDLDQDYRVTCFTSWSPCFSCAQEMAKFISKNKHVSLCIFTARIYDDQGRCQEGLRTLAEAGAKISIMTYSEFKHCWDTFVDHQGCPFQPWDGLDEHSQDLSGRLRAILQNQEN

Apobec3G D128K MAPPIT bait (human), sequence (Q9HC16 whole entry D128K): as the sequence (Q9HC16 whole entry L27A/S28A) above, with A27L, A28S, D128K counted along it
Apobec3G R55A MAPPIT bait (human), sequence (Q9HC16 whole entry R55A): as the sequence (Q9HC16 whole entry L27A/S28A) above, with A27L, A28S, R55A counted along it
Apobec3G S137A MAPPIT bait (human), sequence (Q9HC16 whole entry S137A): as the sequence (Q9HC16 whole entry L27A/S28A) above, with A27L, A28S, S137A counted along it
Apobec3G V9A MAPPIT bait (human), sequence (Q9HC16 whole entry V9A): as the sequence (Q9HC16 whole entry L27A/S28A) above, with V9A, A27L, A28S counted along it
Apobec3G Y19A MAPPIT bait (human), sequence (Q9HC16 whole entry Y19A): as the sequence (Q9HC16 whole entry L27A/S28A) above, with Y19A, A27L, A28S counted along it
Apobec3G TK98-99AS MAPPIT bait (human), sequence (Q9HC16 whole entry T98A/K99S): as the sequence (Q9HC16 whole entry L27A/S28A) above, with A27L, A28S, T98A, K99S counted along it
Apobec3G E110K MAPPIT bait (human), sequence (Q9HC16 whole entry E110K): as the sequence (Q9HC16 whole entry L27A/S28A) above, with A27L, A28S, E110K counted along it
Apobec3G L184A MAPPIT bait (human), sequence (Q9HC16 whole entry L184A): as the sequence (Q9HC16 whole entry L27A/S28A) above, with A27L, A28S, L184A counted along it
Apobec3G D128H MAPPIT bait (human), sequence (Q9HC16 whole entry D128H): as the sequence (Q9HC16 whole entry L27A/S28A) above, with A27L, A28S, D128H counted along it
Apobec3G RD102-103EK MAPPIT bait (human), sequence (Q9HC16 whole entry R102E/D103K): as the sequence (Q9HC16 whole entry L27A/S28A) above, with A27L, A28S, R102E, D103K counted along it
Apobec3G M12A MAPPIT bait (human), sequence (Q9HC16 whole entry M12A): as the sequence (Q9HC16 whole entry L27A/S28A) above, with M12A, A27L, A28S counted along it
Apobec3G K63E MAPPIT bait (human), sequence (Q9HC16 whole entry K63E): as the sequence (Q9HC16 whole entry L27A/S28A) above, with A27L, A28S, K63E counted along it
Apobec3G TK98-99AD MAPPIT bait (human), sequence (Q9HC16 whole entry T98A/K99D): as the sequence (Q9HC16 whole entry L27A/S28A) above, with A27L, A28S, T98A, K99D counted along it
Apobec3G N31S MAPPIT bait (human), sequence (Q9HC16 whole entry N31S): as the sequence (Q9HC16 whole entry L27A/S28A) above, with A27L, A28S, N31S counted along it
Apobec3G T32E MAPPIT bait (human), sequence (Q9HC16 whole entry T32E): as the sequence (Q9HC16 whole entry L27A/S28A) above, with A27L, A28S, T32E counted along it

With “Gagpol MAPPIT prey (pMG2-Gagpol) (natural protein)” the MAPPIT signal, % of WT [1] was 84 % of WT, the MAPPIT signal, % of WT [2] was 36 % of WT and the MAPPIT signal, % of WT [3] was 78 % of WT. For the same substance, the MAPPIT signal, % of WT [4] was 98 % of WT, the MAPPIT signal, % of WT [5] was 64 % of WT and the MAPPIT signal, % of WT [6] was 110 % of WT. The MAPPIT signal, % of WT [7] was 127 % of WT, the MAPPIT signal, % of WT [8] was 60 % of WT and the MAPPIT signal, % of WT [9] was 101 % of WT. The MAPPIT signal, % of WT [10] was 79 % of WT, the MAPPIT signal, % of WT [11] was 85 % of WT and the MAPPIT signal, % of WT [12] was 104 % of WT. For the same substance, the MAPPIT signal, % of WT [13] was 25 % of WT, the MAPPIT signal, % of WT [14] was 74 % of WT and the MAPPIT signal, % of WT [15] was 81 % of WT. The MAPPIT signal, % of WT [16] was 48 % of WT.
